Patent publication US10920254B2, “Methods and materials for producing 5 and 7-carbon monomers” (INVISTA North America S.á.r.l., priority 2015, dated 2021)
Values belong to the molecule of their own block, whether it stands above or below them.

Columns and labels:
Format in all cases: biochemical
[1] = carboxylate reductase enzyme activity assay (N7-acetyl-7-aminoheptanoate to N7-acetyl-7-aminoheptanal), NADPH consumption at 340 nm; conditions: purified enzyme enhanced by gene product of sfp; 2 mM N7-acetyl-7-aminoheptanoate, 1 mM ATP, 1 mM NADPH, pH 7.5, room temperature, 20 min; FIG. 10
Experimental: The activity of each of the N-terminal His-tagged carboxylate reductases of SEQ ID NOs: 3, 5, and 6 (see Examples 2 and 3, and FIG. 6B, FIGS. 6D-6E) for converting N7-acetyl-7-aminoheptanoate to N7-acetyl-7-aminoheptanal was assayed in triplicate in a buffer composed of a final concentration of 50 mM HEPES buffer (pH=7.5), 2 mM N7-acetyl-7-aminoheptanoate, 10 mM MgCl2, 1 mM ATP, and 1 mM NADPH. The assays were initiated by adding purified carboxylate reductase and phosphopantetheine transferase or the empty vector control to the assay buffer containing the N7-acetyl-7-aminoheptanoate then incubated at room temperature for 20 min. The consumption of NADPH was monitored by absorbance at 340 nm.

[2] = carboxylate reductase enzyme activity assay (pimelate semialdehyde to heptanedial), NADPH consumption at 340 nm; conditions: purified enzyme enhanced by gene product of sfp; 2 mM pimelate semialdehyde, 1 mM ATP, 1 mM NADPH, pH 7.5, room temperature, 20 min; FIG. 11
Experimental: The N-terminal His-tagged carboxylate reductase of SEQ ID NO: 6 (see Example 3 and FIG. 6E) was assayed using pimelate semialdehyde as substrate. The enzyme activity assay was performed in triplicate in a buffer composed of a final concentration of 50 mM HEPES buffer (pH=7.5), 2 mM pimelate semialdehyde, 10 mM MgCl2, 1 mM ATP, and 1 mM NADPH. The enzyme activity assay reaction was initiated by adding purified carboxylate reductase and phosphopantetheine transferase or the empty vector control to the assay buffer containing the pimelate semialdehyde and then incubated at room temperature for 20 min. The consumption of NADPH was monitored by absorbance at 340 nm.

[3] = carboxylate reductase enzyme activity assay (pimelate to pimelate semialdehyde), NADPH consumption at 340 nm; conditions: purified enzyme enhanced by gene product of sfp; 2 mM pimelate, 1 mM ATP, 1 mM NADPH, pH 7.5, room temperature, 20 min; FIG. 8
Experimental: A nucleotide sequence encoding a HIS-tag was added to the nucleic acid sequences from Segniliparus rugosus and Segniliparus rotundus that encode the carboxylate reductases of SEQ ID NOs: 4 (EFV11917.1) and 6 (ADG98140.1), respectively (see FIG. 6C and FIG. 6E), such that N-terminal HIS tagged carboxylate reductases could be produced. Each of the modified genes was cloned into a pET Duet expression vector along with a sfp gene encoding a HIS-tagged phosphopantetheine transferase from Bacillus subtilis, both under the T7 promoter. Each expression vector was transformed into a BL21[DE3] E. coli host and the resulting recombinant E. coli strains were cultivated at 37° C. in a 250 mL shake flask culture containing 50 mL LB media and antibiotic selection pressure, with shaking at 230 rpm. Each culture was induced overnight at 37° C. using an auto-induction media.
The pellet from each induced shake flask culture was harvested via centrifugation. Each pellet was resuspended and lysed via sonication, and the cell debris was separated from the supernatant via centrifugation. […]
Enzyme activity assays (i.e., from pimelate to pimelate semialdehyde) were performed in triplicate in a buffer composed of a final concentration of 50 mM HEPES buffer (pH=7.5), 2 mM pimelate, 10 mM MgCl2, 1 mM ATP, and 1 mM NADPH. […] The consumption of NADPH was monitored by absorbance at 340 nm. […]

acceptance of pimelate as substrate (NADPH consumption), confirmed against the empty vector control [3]: accepted pimelate as substrate
B1: SEQ ID NO: 6: Segniliparus rotundus carboxylate reductase, N-terminal HIS tagged (protein, listed as Segniliparus rotundus)
chain: MTQSHTQGPQASAAHSRLARRAAELLATDPQAAATLPDPEVVRQATRPGLRLAERVDAILSGYADRPALGQRSFQTVKDPITGRSSVELLPTFDTITYRELRERATAIASDLAHHPQAPAKPGDFLASIGFISVDYVAIDIAGVFAGLTAVPLQTGATLATLTAITAETAPTLFAASIEHLPTAVDAVLATPSVRRLLVFDYRAGSDEDREAVEAAKRKIADAGSSVLVDVLDEVIARGKSAPKAPLPPATDAGDDSLSLLIYTSGSTGTPKGAMYPERNVAHFWGGVWAAAFDEDAAPPVPAINITFLPLSHVASRLSLMPTLARGGLMHFVAKSDLSTLFEDLKLARPTNLFLVPRVVEMLYQHYQSELDRRGVQDGTREAEAVKDDLRTGLLGGRILTAGFGSAPLSAELAGFIESLLQIHLVDGYGSTEAGPVWRDGYLVKPPVTDYKLIDVPELGYFSTDSPHPRGELAIKTQTILPGYYKRPETTAEVFDEDGFYLTGDVVAQIGPEQFAYVDRRKNVLKLSQGEFVTLAKLEAAYSSSPLVRQLFVYGSSERSYLLAVIVPTPDALKKFGVGEAAKAALGESLQKIARDEGLQSYEVPRDFIIETDPFTVENGLLSDARKSLRPKLKEHYGERLEAMYKELADGQANELRDIRRGVQQRPTLETVRRAAAAMLGASAAEIKPDAHFTDLGGDSLSALTFSNFLHDLFEVDVPVGVIVSAANTLGSVAEHIDAQLAGGRARPTFATVHGKGSTTIKASDLTLDKFIDEQTLEAAKHLPKPADPPRTVLLTGANGWLGRFLALEWLERLAPAGGKLITIVRGKDAAQAKARLDAAYESGDPKLAGHYQDLAATTLEVLAGDFSEPRLGLDEATWNRLADEVDFISHPGALVNHVLPYNQLFGPNVAGVAEIIKLAITTRIKPVTYLSTVAVAAGVEPSALDEDGDIRTVSAERSVDEGYANGYGNSKWGGEVLLREAHDRTGLPVRVFRSDMILAHQKYTGQVNATDQFTRLVQSLLATGLAPKSFYELDAQGNRQRAHYDGIPVDFTAESITTLGGDGLEGYRSYNVFNPHRDGVGLDEFVDWLIEAGHPITRIDDYDQWLSRFETSLRGLPESKRQASVLPLLHAFARPGPAVDGSPFRNTVFRTDVQKAKIGAEHDIPHLGKALVLKYADDIKQLGLL
modifications: N-terminal His tag
notes: Segniliparus rotundus carboxylate reductase, N-terminal HIS tagged
acceptance of N7-acetyl-7-aminoheptanoate as substrate (NADPH consumption), confirmed against the empty vector control [1]: accepted N7-acetyl-7-aminoheptanoate as substrate | acceptance of pimelate semialdehyde as substrate (NADPH consumption), confirmed against the empty vector control [2]: accepted pimelate semialdehyde as substrate

B2: SEQ ID NO: 5: Mycobacterium massiliense carboxylate reductase, N-terminal HIS tagged (protein, listed as Mycobacterium abscessus)
chain: MTNETNPQQEQLSRRIESLRESDPQFRAAQPDPAVAEQVLRPGLHLSEAIAALMTGYAERPALGERARELVIDQDGRTTLRLLPRFDTTTYGELWSRTTSVAAAWHHDATHPVKAGDLVATLGFTSIDYTVLDLAIMILGGVAVPLQTSAPASQWTTILAEAEPNTLAVSIELIGAAMESVRATPSIKQVVVFDYTPEVDDQREAFEAASTQLAGTGIALETLDAVIARGAALPAAPLYAPSAGDDPLALLIYTSGSTGAPKGAMHSENIVRRWWIREDVMAGTENLPMIGLNFMPMSHIMGRGTLTSTLSTGGTGYFAASSDMSTLFEDMELIRPTALALVPRVCDMVFQRFQTEVDRRLASGDTASAEAVAAEVKADIRDNLFGGRVSAVMVGSAPLSEELGEFIESCFELNLTDGYGSTEAGMVFRDGIVQRPPVIDYKLVDVPELGYFSTDKPHPRGELLLKTDGMFLGYYKRPEVTASVFDADGFYMTGDIVAELAHDNIEIIDRRNNVLKLSQGEFVAVATLEAEYANSPVVHQIYVYGSSERSYLLAVVVPTPEAVAAAKGDAAALKTTIADSLQDIAKEIQLQSYEVPRDFIIEPQPFTQGNGLLTGIAKLARPNLKAHYGPRLEQMYAEIAEQQAAELRALHGVDPDKPALETVLKAAQALLGVSSAELAADAHFTDLGGDSLSALSFSDLLRDIFAVEVPVGVIVSAANDLGGVAKFVDEQRHSGGTRPTAETVHGAGHTEIRAADLTLDKFIDEATLHAAPSLPKAAGIPHTVLLTGSNGYLGHYLALEWLERLDKTDGKLIVIVRGKNAEAAYGRLEEAFDTGDTELLAHFRSLADKHLEVLAGDIGDPNLGLDADTWQRLADTVDVIVHPAALVNHVLPYNQLFGPNVVGTAEIIKLAITTKIKPVTYLSTVAVAAYVDPTTFDEESDIRLISAVRPIDDGYANGYGNAKWAGEVLLREAHDLCGLPVAVFRSDMILAHSRYTGQLNVPDQFTRLILSLIATGIAPGSFYQAQTTGERPLAHYDGLPGDFTAEAITTLGTQVPEGSEGFVTYDCVNPHADGISLDNFVDWLIEAGYPIARIDNYTEWFTRFDTAIRGLSEKQKQHSLLPLLHAFEQPSAAENHGVVPAKRFQHAVQAAGIGPVGQDGTTDIPHLSRRLIVKYAKDLEQLGLL
modifications: N-terminal His tag; Mycobacterium abscessus subsp. bolletii
notes: Mycobacterium massiliense carboxylate reductase, N-terminal HIS tagged
acceptance of N7-acetyl-7-aminoheptanoate as substrate (NADPH consumption), confirmed against the empty vector control [1]: accepted N7-acetyl-7-aminoheptanoate as substrate

acceptance of pimelate as substrate (NADPH consumption), confirmed against the empty vector control [3]: accepted pimelate as substrate
B3: SEQ ID NO: 4: Segniliparus rugosus carboxylate reductase, N-terminal HIS tagged (protein, listed as Segniliparus rugosus)
chain: MGDGEERAKRFFQRIGELSATDPQFAAAAPDPAVVEAVSDPSLSFTRYLDTLMRGYAERPALAHRVGAGYETISYGELWARVGAIAAAWQADGLAPGDFVATVGFTSPDYVAVDLAAARSGLVSVPLQAGASLAQLVGILEETEPKVLAASASSLEGAVACALAAPSVQRLVVFDLRGPDASESAADERRGALADAEEQLARAGRAVVVETLADLAARGEALPEAPLFEPAEGEDPLALLIYTSGSTGAPKGAMYSQRLVSQLWGRTPVVPGMPNISLHYMPLSHSYGRAVLAGALSAGGTAHFTANSDLSTLFEDIALARPTFLALVPRVCEMLFQESQRGQDVAELRERVLGGRLLVAVCGSAPLSPEMRAFMEEVLGFPLLDGYGSTEALGVMRNGIIQRPPVIDYKLVDVPELGYRTTDKPYPRGELCIRSTSLISGYYKRPEITAEVFDAQGYYKTGDVMAEIAPDHLVYVDRSKNVLKLSQGEFVAVAKLEAAYGTSPYVKQIFVYGNSERSFLLAVVVPNAEVLGARDQEEAKPLIAASLQKIAKEAGLQSYEVPRDFLIETEPFTTQNGLLSEVGKLLRPKLKARYGEALEARYDEIAHGQADELRALRDGAGQRPVVETVVRAAVAISGSEGAEVGPEANFADLGGDSLSALSLANLLHDVFEVEVPVRIIIGPTASLAGIAKHIEAERAGASAPTAASVHGAGATRIRASELTLEKFLPEDLLAAAKGLPAADQVRTVLLTGANGWLGRFLALEQLERLARSGQDGGKLICLVRGKDAAAARRRIEETLGTDPALAARFAELAEGRLEVVPGDVGEPKFGLDDAAWDRLAEEVDVIVHPAALVNHVLPYHQLFGPNVVGTAEIIRLAITAKRKPVTYLSTVAVAAGVEPSSFEEDGDIRAVVPERPLGDGYANGYGNSKWAGEVLLREAHELVGLPVAVFRSDMILAHTRYTGQLNVPDQFTRLVLSLLATGIAPKSFYQQGAAGERQRAHYDGIPVDFTAEAITTLGAEPSWFDGGAGFRSFDVFNPHHDGVGLDEFVDWLIEAGHPISRIDDHKEWFARFETAVRGLPEAQRQHSLLPLLRAYSFPHPPVDGSVYPTGKFQGAVKAAQVGSDHDVPHLGKALIVKYADDLKALGLL
modifications: N-terminal His tag
notes: Segniliparus rugosus carboxylate reductase, N-terminal HIS tagged
